Assay results taken from the Human Domainome abundance scans (Beltran et al. 2025).
± gives the uncertainty stated by the source.

B1: Connector enhancer of kinase suppressor of ras 2, residues 9 to 71; numbered along this chain, Q8WXI2 (parent)
chain: SKWSPSQVVDWMKGLDDCLQQYIKNFEREKISGDQLLRITHQELEDLGVSRIGHQELILEAVD

Variants of: B1
Assay: abundance fitness (aPCA) (normalised: wild type 0, dead -1); higher = more abundant; growth selection in yeast, the domain comes from the species named
Details: Homo sapiens

Point of comparison: R51C, abundance fitness 0.082 ± 0.034. Against it:
- E43P — lower, -0.987 ± 0.077
- E43K — within error, -0.003 ± 0.055
- E29G — lower, -0.04 ± 0.029
- S50C — lower, -0.068 ± 0.067
- S50K — within error, 0.278 ± 0.29
- S50H — within error, 0.239 ± 0.17
- S50F — lower, -0.139 ± 0.058
- S50A — lower, -0.125 ± 0.15
- G53W — lower, -0.151 ± 0.03
- V62Q — lower, -0.789 ± 0.089
- V62K — lower, -0.392 ± 0.12
- V62Y — lower, -1.02 ± 0.11
- G33A — lower, -0.745 ± 0.05
- G33C — lower, -0.833 ± 0.07
- G33Q — lower, -0.559 ± 0.051
- G33P — lower, -0.84 ± 0.069
- H54R — lower, -0.793 ± 0.043
- H54A — lower, -0.727 ± 0.036
- S1I — within error, 0.038 ± 0.057
- G48W — lower, -1.07 ± 0.071
- G48I — lower, -1.29 ± 0.33
- P5V — lower, -0.047 ± 0.025
- P5G — lower, -0.37 ± 0.029
- P5E — lower, -0.336 ± 0.042
- L37P — lower, -0.407 ± 0.041
- L37D — lower, -0.254 ± 0.031
- L37T — lower, -0.155 ± 0.037
- Q55S — lower, -0.57 ± 0.034
- D17R — lower, -0.184 ± 0.025
- D17N — lower, -0.075 ± 0.057
- D17Q — lower, -0.091 ± 0.038
- D17K — lower, -0.186 ± 0.041
- D17G — lower, -0.104 ± 0.032
- T40F — lower, -1.21 ± 0.37
- T40W — lower, -0.957 ± 0.07
- T40H — lower, -0.6 ± 0.076
- S32M — lower, -0.394 ± 0.042
- S32C — lower, -0.029 ± 0.047
- L59Q — lower, -0.646 ± 0.069
- L47S — lower, -0.813 ± 0.041
- L47C — lower, -0.592 ± 0.083
- M12V — lower, -0.266 ± 0.024
- M12P — lower, -1 ± 0.068
- I23D — lower, -0.698 ± 0.07
- S6F — lower, -0.287 ± 0.038
- V9H — lower, -0.774 ± 0.051
- V9D — lower, -0.66 ± 0.052
- V9E — lower, -0.374 ± 0.036
- R51M — lower, -0.042 ± 0.039
- L44F — lower, -0.722 ± 0.07
- L44P — lower, -0.821 ± 0.073
- L44N — lower, -0.87 ± 0.091
- E27W — lower, -0.311 ± 0.034
- E27Y — lower, -0.316 ± 0.079
- I31E — lower, -0.827 ± 0.051
- I31C — lower, -0.99 ± 0.1
- I31Y — lower, -0.948 ± 0.25
- I31M — lower, -0.361 ± 0.028
- I31F — lower, -0.573 ± 0.077
- I31V — lower, -0.053 ± 0.027
- D10T — lower, -0.18 ± 0.027
- D10E — within error, 0.096 ± 0.029
- D46K — within error, 0.072 ± 0.035
- D46F — lower, -0.097 ± 0.035
- D46I — lower, -0.178 ± 0.044
- Y22K — lower, -0.578 ± 0.091
- I52V — lower, 0.002 ± 0.038
- I52E — lower, -0.058 ± 0.042
- I52F — lower, -0.071 ± 0.052
- H41D — lower, -0.229 ± 0.052
- H41V — lower, -0.06 ± 0.03
- H41I — lower, -0.184 ± 0.051
- K30H — lower, -0.04 ± 0.043
- Q35M — lower, -0.152 ± 0.049
- Q35D — lower, -0.158 ± 0.05
- E45N — lower, -0.015 ± 0.039
- E45H — lower, -0.04 ± 0.022
- I58E — lower, -0.584 ± 0.078
- I58A — lower, -0.799 ± 0.099
- I58K — lower, -0.727 ± 0.12
- C18N — lower, -0.132 ± 0.045
- C18D — within error, 0.006 ± 0.043
- C18L — lower, -0.885 ± 0.049
- L15T — lower, -0.427 ± 0.032
- V8I — lower, -0.524 ± 0.038
- V8T — lower, -0.523 ± 0.033
- W3T — lower, -1.05 ± 0.26
- W3C — lower, -0.713 ± 0.12
- W3Y — lower, -0.6 ± 0.084
- W3E — lower, -0.725 ± 0.15
